{"source": "paper PMC10693628", "about": "“Novel WYL domain-containing transcriptional activator acts in response to genotoxic stress in rapidly growing mycobacteria” (Communications Biology, 2023)", "molecules": {"B1": {"name": "3' tailed DNA (dsDNA)", "DNA 1": "GCAGTCAGGTCAATCCGACGACTG", "DNA 2": "TGACCTGACTGC"}, "B2": {"name": "msmeg_1357-56 promoter (dsDNA)", "DNA 1": "TGACCCACCCTGACAGGCATATAGGACAGTTCCGGTCCTAAAAGTGCGGCAGACTTGTCG", "DNA 2": "CGACAAGTCTGCCGCACTTTTAGGACCGGAACTGTCCTATATGCCTGTCAGGGTGGGTCA"}, "B3": {"name": "fragment a (dsDNA)", "DNA 1": "GTGACCCACCCTGACAGGCATATAGGACAGT", "DNA 2": "ACTGTCCTATATGCCTGTCAGGGTGGGTCAC"}, "B4": {"name": "fragment c (dsDNA)", "DNA 1": "TGACAGGCATATAGGACAGTTCCGGTCCTAAAAGTGCGGC", "DNA 2": "GCCGCACTTTTAGGACCGGAACTGTCCTATATGCCTGTCA"}, "B5": {"name": "5' tailed DNA (dsDNA)", "DNA 1": "CGTCAGTCCAGT", "DNA 2": "GTCAGCAGCCTAACTGGACTGACG"}, "B6": {"name": "DNA fork mimic (dsDNA)", "DNA 1": "CGTCAGTCCAGTATCCGACGACTG", "DNA 2": "CAGTCGTCGGATTGACCTGACTGC"}, "B7": {"name": "fragment b (dsDNA)", "DNA 1": "TCCGGTCCTAAAAGTGCGGCAGACTTGTCGC", "DNA 2": "GCGACAAGTCTGCCGCACTTTTAGGACCGGA"}, "B8": {"name": "MSMEG_1357 (DinB_2 family protein, DinB/YfiT-like putative metalloenzymes superfamily) (natural protein, Mycobacterium smegmatis, UniProt A0QS55 1-175, looked up)", "chain": "MDIDLIADQLDFHWTHQLRPRLDGLTDDEYFWQPVPGCWTVHADGSIDFSYPEPQPTPFTTIAWRLAHVIVGVLAMRNHSHFGGPPADYQTWPYATDAKTALEQLDDAHRNWITGVRALSEDDLQRPVGPAEGPWADHPMSELVLHINREVIHHGAEIACIRDLYAHTNNTAEEN", "notes": "MSMEG_1357, DinB_2 family (pfam12867) protein of Mycobacterium smegmatis; expressed from a pET21-His6-TEV-MSMEG_1357 plasmid; The construct name puts His6-TEV before the protein; No TEV cleavage is described; also called His6-TEV-MSMEG_1357"}, "B9": {"name": "fragment d (dsDNA)", "DNA 1": "GGCATATAGGACAGTTCCGGTCCTAAAAGT", "DNA 2": "ACTTTTAGGACCGGAACTGTCCTATATGCC"}}, "key": {"[1]": {"biological_target": "Sumo-SiwR (His6-TEV-Sumo-linker fused to the N-terminus of SiwR, stress-involved WYL domain-containing regulator, MSMEG_1359) (Mycobacterium smegmatis) (UniProt A0QS56)", "assay": "SEC; analytical gel filtration, Superdex 200 Increase 10/300 GL, buffer GF (50 mM HEPES-KOH pH 7.0, 150 mM NaCl, 0.5 mM TCEP, 1 mM EDTA); SiwR 40 uM protomer, MSMEG_1357 or MSMEG_1356 100 uM protomer; incubated at 37 °C for 20 min, run at 0.5 mL/min at room temperature"}, "[2]": {"biological_target": "MSMEG_1356 (DUF664 family protein, DinB/YfiT-like putative metalloenzymes superfamily) (Mycobacterium smegmatis) (UniProt A0QS54)", "assay": "SEC; gel filtration step of the purification, Superdex 75 10/300 GL 24 mL, after dialysis against buffer D (50 mM HEPES-KOH pH 7.0, 150 mM NaCl, 0.5 mM TCEP)"}, "[3]": {"biological_target": "MSMEG_1356 (DUF664 family protein, DinB/YfiT-like putative metalloenzymes superfamily) (Mycobacterium smegmatis) (UniProt A0QS54)", "assay": "SEC; analytical gel filtration, Superdex 200 Increase 10/300 GL, buffer GF (50 mM HEPES-KOH pH 7.0, 150 mM NaCl, 0.5 mM TCEP, 1 mM EDTA); SiwR 40 uM protomer, MSMEG_1357 or MSMEG_1356 100 uM protomer; incubated at 37 °C for 20 min, run at 0.5 mL/min at room temperature"}, "[4]": {"biological_target": "T1, Sumo-SiwR (Mycobacterium smegmatis, UniProt A0QS56 1-320)", "T1 sequence": "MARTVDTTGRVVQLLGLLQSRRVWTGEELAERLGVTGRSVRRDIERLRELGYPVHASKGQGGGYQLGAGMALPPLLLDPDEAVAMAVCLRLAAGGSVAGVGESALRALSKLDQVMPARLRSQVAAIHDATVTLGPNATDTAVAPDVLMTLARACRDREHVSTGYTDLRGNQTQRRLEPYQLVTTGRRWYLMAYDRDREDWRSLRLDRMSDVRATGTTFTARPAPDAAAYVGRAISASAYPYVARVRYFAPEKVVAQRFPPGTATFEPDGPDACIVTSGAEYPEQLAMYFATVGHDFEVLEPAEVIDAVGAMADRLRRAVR", "assay": "fluorescence anisotropy; EMSA: 5 mM HEPES-KOH pH 7.0, 30 mM NaCl, 2.5% Ficoll 400K, 1% glycerol, 5 nM probe (10 nM in Fig. 2a legend), 37 °C 15 min; anisotropy: 5 mM HEPES-KOH pH 7, 30", "conditions": "protein: recombinant, tags: His6-TEV-Sumo N-terminal fusion, chain copies: 2"}, "[5]": {"biological_target": "T2, Sumo-SiwR R204A-R207A (Mycobacterium smegmatis, UniProt A0QS56 1-320, R204A;R207A)", "T2 sequence": "T1 sequence with R204A, R207A", "assay": "EMSA; comparable to wild type; EMSA: 5 mM HEPES-KOH pH 7.0, 30 mM NaCl, 2.5% Ficoll 400K, 1% glycerol, 5 nM probe (10 nM in Fig. 2a legend), 37 °C 15 min; anisotropy: 5 mM HEPES-KOH pH 7, 30", "conditions": "protein: recombinant; tags: His6-TEV-Sumo N-terminal fusion; chain copies: 2; label: 5'-FAM on strand 2; blunt"}, "[6]": {"biological_target": "T1, Sumo-SiwR", "assay": "fluorescence anisotropy; Kd for SiwR dimer; EMSA: 5 mM HEPES-KOH pH 7.0, 30 mM NaCl, 2.5% Ficoll 400K, 1% glycerol, 5 nM probe (10 nM in Fig. 2a legend), 37 °C 15 min; anisotropy: 5 mM HEPES-KOH pH 7, 30", "conditions": "protein: recombinant; tags: His6-TEV-Sumo N-terminal fusion; chain copies: 2; label: 5'-FAM on strand 2; blunt"}, "[7]": {"biological_target": "T1, Sumo-SiwR", "assay": "EMSA; EMSA: 5 mM HEPES-KOH pH 7.0, 30 mM NaCl, 2.5% Ficoll 400K, 1% glycerol, 5 nM probe (10 nM in Fig. 2a legend), 37 °C 15 min; anisotropy: 5 mM HEPES-KOH pH 7, 30", "conditions": "protein: recombinant; tags: His6-TEV-Sumo N-terminal fusion; chain copies: 2; label: 5'-FAM on strand 1; blunt"}, "[8]": {"biological_target": "the molecule itself", "assay": "SEC; analytical gel filtration, Superdex 200 Increase 10/300 GL, buffer GF (50 mM HEPES-KOH pH 7.0, 150 mM NaCl, 0.5 mM TCEP, 1 mM EDTA); SiwR 40 uM protomer, MSMEG_1357 or MSMEG_1356 100 uM protomer; incubated at 37 °C for 20 min, run at 0.5 mL/min at room temperature"}, "[9]": {"biological_target": "T2, Sumo-SiwR R204A-R207A", "assay": "fluorescence anisotropy; EMSA: 5 mM HEPES-KOH pH 7.0, 30 mM NaCl, 2.5% Ficoll 400K, 1% glycerol, 5 nM probe (10 nM in Fig. 2a legend), 37 °C 15 min; anisotropy: 5 mM HEPES-KOH pH 7, 30", "conditions": "protein: recombinant; tags: His6-TEV-Sumo N-terminal fusion; chain copies: 2; label: FAM"}}, "note": "Residue numbers refer to the chain shown, from its start.", "data": [{"molecule": "Sumo-SiwR (His6-TEV-Sumo-linker fused to the N-terminus of SiwR, stress-involved WYL domain-containing regulator, MSMEG_1359) (from UniProt A0QS56 1-320) (natural protein)", "values": [{"measurement": "stoichiometry N", "setting": "[1]", "value": 2}]}, {"molecule": "MSMEG_1356 (DUF664 family protein, DinB/YfiT-like putative metalloenzymes superfamily) (from UniProt A0QS54 1-203) (natural protein)", "values": [{"measurement": "stoichiometry N", "setting": "[2]", "value": 2}, {"measurement": "stoichiometry N", "setting": "[3]", "value": 2}]}, {"molecule": "B1", "values": [{"measurement": "Kd", "setting": "[4]; label: FAM on strand 1, 12 bp duplex, 3' overhang 12 nt on strand 1", "value": 702, "unit": "nM"}]}, {"molecule": "B2", "values": [{"measurement": "binding result", "setting": "[5]", "value": "binds"}, {"measurement": "Kd", "setting": "[6]", "value": 651, "unit": "nM"}]}, {"molecule": "CGUCAGUCCAGU (ssRNA)", "note": "[12-nt ssRNA]", "values": [{"measurement": "binding result", "setting": "[4]", "value": "no binding"}]}, {"molecule": "B3", "values": [{"measurement": "binding result", "setting": "[7]", "value": "no binding"}]}, {"molecule": "B4", "values": [{"measurement": "binding result", "setting": "[7]", "value": "binds"}]}, {"molecule": "B5", "values": [{"measurement": "Kd", "setting": "[4]; label: 5'-FAM on strand 1, 12 bp duplex, 5' overhang 12 nt on strand 2", "value": 306, "unit": "nM"}]}, {"molecule": "B6", "values": [{"measurement": "Kd", "setting": "[4]; label: 5'-FAM on strand 1, fork 1:2, 12 bp duplex with 12-nt 5' tail (strand 1) and 12-nt 3' tail (strand 2)", "value": 898, "unit": "nM"}]}, {"molecule": "B7", "values": [{"measurement": "binding result", "setting": "[7]", "value": "no binding"}]}, {"molecule": "CGTCAGTCCAGT (ssDNA)", "note": "[12-nt ssDNA]", "values": [{"measurement": "Kd", "setting": "[4]; label: 5'-FAM", "value": 178, "unit": "nM"}]}, {"molecule": "B8", "values": [{"measurement": "stoichiometry N", "setting": "[8]", "value": 2}]}, {"molecule": "CGTCAGTCCAGT (ssDNA, 8-oxoguanine at position 6)", "note": "[12-nt ssDNA 8-oxoG]", "values": [{"measurement": "Kd", "setting": "[4]; label: 5'-FAM", "value": 227, "unit": "nM"}]}, {"molecule": "TTTTTTTTTTTTTTTTTTTT (ssDNA)", "note": "[polyT20]", "values": [{"measurement": "Kd", "setting": "[4]; label: FAM", "value": 182, "unit": "nM"}, {"measurement": "binding result", "setting": "[9]", "value": "no binding"}]}, {"molecule": "B9", "values": [{"measurement": "binding result", "setting": "[7]", "value": "binds"}]}]}
